For data set [1], the system named is urokinase. In words: Effect of heat stabilizers on residual urokinase activity after heat treatment. It counts as physicochemical. To be noted: for residual urokinase activity in the presence of heat stabilizer: after heat treatment, concentrations of Table 2.
Data set [2] deals with urokinase. Nature of the data set: Residual urokinase activity and molecular weight distribution after dialysis against outer liquids of different pH. It counts as physicochemical, human urine. The note with it: 40 hours at 4° C. Here is the method:
The interrelationship between pH and the ratio of residual urokinase activity as well as the molecular weight distribution:
The resulting solution was dialyzed for 40 hours at 4° C. against an outer liquid of water, a 1 M sodium acetate buffer solution of pH 3.0, 4.0, 5.0, 6.0, 7.0, 8.0, 9.0, 11.0 or 12.0 or a 1/15 M phosphate buffer solution, while renewing the outer liquid at a time interval of 8 hours. After completion of the dialysis, the ratio of residual activity was assayed and molecular weight distribution was roughly evaluated by the molecular sieving by means of gel filtration technique.

Data set [3] relates to urokinase. In words: Stability of urokinase in heat treatment (60° C., 10 hours), dependence on pH. It counts as physicochemical. Here is the method:
Dependence of the stability of urokinase in heat treatment on pH:
A phosphate buffer solution was added in various concentrations to an aqueous urokinase solution [specific activity, 15,000 IU/mg; protein concentration, 0.02% (W/V)] to prepare samples of urokinase solutions having pH of 4, 5, 6, 7, 8, 9 and 10. Each sample was heated at 60° C. for 10 hours and the residual activity was compared. After the heat treatment, the heat stabilizer was removed by dialysis and the urokinase activity was assayed to calculate the ratio of residual activity by taking the specific activity before heating as 100%.

The mark [4] stands for this setting: heat stabilizer concentration 0.1 M.
The mark [5] stands for this setting: heat stabilizer concentration 5%.
Setting [6] is: heat stabilizer concentration 10%.
[7] abbreviates: heat stabilizer concentration 15%.

For the compound `N=C(N)NCCC[C@H](N)C(=O)O` [Arginine, arginine], the “residual urokinase activity in the presence of heat stabilizer” value in data set [1] amounted to 79%. For the same compound, the “Ratio of residual urokinase activity” value in data set [1] (setting [4]) was 79%.
Regarding `O=C(O)CN(CCN(CC(=O)O)CC(=O)O)CC(=O)O` [EDTA], in data set [1] (heat stabilizer concentration 0.1%), the “Ratio of residual urokinase activity” value came to 23%.
`NCC(=O)O` [Glycine, glycine]: in data set [1], the “residual urokinase activity in the presence of heat stabilizer” value was 65-75%. The “Ratio of residual urokinase activity” value amounted to 65% in data set [1] (setting [5]), 70% in data set [1] (setting [6]) and 75% in data set [1] (setting [7]).
For `NCCCC[C@H](N)C(=O)O` [Lysine, lysine], the “residual urokinase activity in the presence of heat stabilizer” value in data set [1] stood at 78%. The “Ratio of residual urokinase activity” value in data set [1] (setting [4]) was 78%.
Turning to `OC[C@@H](O)[C@@H](O)[C@H](O)[C@H](O)CO` [Mannit, mannitol], in data set [1], the “residual urokinase activity in the presence of heat stabilizer” value came out at 78%. Besides, the “Ratio of residual urokinase activity” value in data set [1] (setting [5]) and in data set [1] (setting [6]) was 73% in each case.
`[Cl-].[Na+]` [Sodium chloride, sodium chloride]: the “residual urokinase activity in the presence of heat stabilizer” value in data set [1] is on record as 71-75%. The entries for the “Ratio of residual urokinase activity” value in data set [1] (heat stabilizer concentration 0.15 M) and in data set [1] (heat stabilizer concentration 0.3 M) were 71% and 75%, respectively.
In the case of `OC[C@H]1O[C@@](CO)(O[C@H]2O[C@H](CO)[C@@H](O)[C@H](O)[C@H]2O)[C@@H](O)[C@@H]1O` [Sucrose, sucrose], the “residual urokinase activity in the presence of heat stabilizer” value in data set [1] is 75-78%. For the same compound, the “Ratio of residual urokinase activity” value in data set [1] (setting [5]) was 75%; in data set [1] (setting [6]), 77%; in data set [1] (setting [7]), 78%.
Take Gelatin: the “residual urokinase activity in the presence of heat stabilizer” value in data set [1] was 88-100%. Also, the “Ratio of residual urokinase activity” value in data set [1] (heat stabilizer concentration 0.5%) is recorded as 88%; in data set [1] (heat stabilizer concentration 1.0%), 91%; in data set [1] (heat stabilizer concentration 3.0%) it was 89%.
In the case of urokinase, the Activity after dialysis was 6,324 IU in data set [2] (Run 1, pH of outer liquid 3); 6,314 IU in data set [2] (Run 2, pH of outer liquid 4); 6,426 IU in data set [2] (Run 3, pH of outer liquid 5); 7,252 IU in data set [2] (Run 4, pH of outer liquid 6); 8,296 IU in data set [2] (Run 5, pH of outer liquid 7); 10,290 IU in data set [2] (Run 6, pH of outer liquid 8). Moreover, the Activity after dialysis in data set [2] (Run 7, pH of outer liquid 9) is listed as 9,672 IU; in data set [2] (Run 8, pH of outer liquid 11), 9,016 IU; in data set [2] (Run 9, pH of outer liquid 12) it was 8,722 IU; in data set [2] (outer liquid H2O), 8,514 IU. The “Ratio of residual activity” value is on record as 65 in data set [2] (Run 1, pH of outer liquid 3); 64 in data set [2] (Run 2, pH of outer liquid 4); 66 in data set [2] (Run 3, pH of outer liquid 5); 74 in data set [2] (Run 4, pH of outer liquid 6); 85 in data set [2] (Run 5, pH of outer liquid 7); 105 in data set [2] (Run 6, pH of outer liquid 8). Moreover, the “Ratio of residual activity” value was 99 in data set [2] (Run 7, pH of outer liquid 9); 92 in data set [2] (Run 8, pH of outer liquid 11); 89 in data set [2] (Run 9, pH of outer liquid 12); 86 in data set [2] (outer liquid H2O). Also, the “ratio of residual activity after heat treatment” value in data set [3] (pH 7, phosphate buffer) worked out at 52%; in data set [3] (pH 8, phosphate buffer), 65%; in data set [3] (pH 9, phosphate buffer), 50%. Also, the “Ratio of residual urokinase activity” value amounted to 65% in data set [1] (heat stabilizer absent, pH 6.8 with 0.1 M phosphate buffer) and 0% in data set [1] (no phosphate buffer, pH not adjusted).

(Values after US4286063A, “Method for producing thrombolytic preparation” (The Green Cross Corporation, priority 1978, dated 1981).)
